Patent publication US20240201167A1 (ALBERT EINSTEIN COLLEGE OF MEDICINE, published 2024)
Positions count from the first letter of the chain named.

T1: human B7-1 K127D on cells (Homo sapiens, UniProt P33681 35-280)
T1 construct: mCherry-tagged point mutant; also called LYS127 ASP
T1 chain: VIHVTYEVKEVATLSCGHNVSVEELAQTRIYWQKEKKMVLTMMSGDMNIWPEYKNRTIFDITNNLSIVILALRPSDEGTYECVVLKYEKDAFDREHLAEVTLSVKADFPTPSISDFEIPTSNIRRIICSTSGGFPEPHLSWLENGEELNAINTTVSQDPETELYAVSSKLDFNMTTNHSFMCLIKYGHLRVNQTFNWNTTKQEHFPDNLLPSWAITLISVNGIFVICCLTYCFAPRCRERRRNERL

T2: human B7-1 R63D on cells (Homo sapiens, UniProt P33681 35-280)
T2 construct: mCherry-tagged point mutant; also called ARG63 ASP
T2 chain: T1 chain with R29D, D93K

T3: human B7-1 K139D on cells (Homo sapiens, UniProt P33681 35-280)
T3 construct: mCherry-tagged point mutant; also called LYS139ASP; LYS139 ASP
T3 chain: T1 chain with D93K, K105D

T4: human B7-1 N82E on cells (Homo sapiens, UniProt P33681 35-280)
T4 construct: C-terminally fused to mCherry; also called ASN82 GLU
T4 chain: T1 chain with N48E, D93K

T5: human B7-1 K120D on cells (Homo sapiens, UniProt P33681 35-280)
T5 construct: mCherry-tagged point mutant; also called LYS120 ASP
T5 chain: T1 chain with K86D, D93K

T6: human B7-1 (CD80), full length, expressed on HEK 293 cells (Homo sapiens, UniProt P33681 35-280)
T6 construct: also called hB7-1; B7-1-mCherry
T6 sequence: T1 chain with D93K

T7: B7-1-hIgG1-biotin (human, UniProt P33681 35-233, biotin on the AVI tag (BirA))
T7 construct: Loaded on streptavidin beads; the paragraph gives residues only; also called B7-1-Fc-biotin; hB7-1 (residues 35-233) hIgG1-His10-AVI; not shown: C-terminal 10xHis and AVI tagged hIgG1 Fc domain
T7 chain: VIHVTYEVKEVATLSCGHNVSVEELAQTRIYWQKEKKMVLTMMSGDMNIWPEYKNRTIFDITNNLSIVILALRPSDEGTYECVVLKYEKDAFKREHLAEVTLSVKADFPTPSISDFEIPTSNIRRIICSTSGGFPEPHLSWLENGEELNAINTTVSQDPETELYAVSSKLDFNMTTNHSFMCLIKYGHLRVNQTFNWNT

B1: HVEM expressed on cells (receptor, human, UniProt Q92956 39-283, looked up)
chain: LPSCKEDEYPVGSECCPKCSPGYRVKEACGELTGTVCEPCPPGTYIAHLNGLSKCLQCQMCDPAMGLRASRNCSRTENAVCGCSPGHFCIVQDGDHCAACRAYATSSPGQRVQKGGTESQDTLCQNCPPGTFSPNGTLEECQHQTKCSWLVTKAGAGTSSSHWVWWFLSGSLVIVIVCSTVGLIICVKRRKPRGDVVKVIVSVQRKRQEAEGEATVIEALQAPPDVTTVAVEETIPSFTGRSPNH
notes: whole, on cells
B2: chimeric human-mouse B7-1 protein expressed on HEK 293 cells (ligand)
chain: VIHVTKEVKEVATLSCGHNVSVEELAQTRIYWQKEKKMVLTMMSGDMNIWPEYKNRTIFDITNNLSIVILALRPSDEGTYECVVLKYEKDAFKREHLAEVTLSVKADFSTPNITESGNPSADTKRITCFASGGFPKPRFSWLENGRELPGINTTISQDPESELYTISSQLDFNTTRNHTIKCLIKYGDAHVSEDFTWEKPPEDPPDSKNTLVLFGAGFGAVITVVVIVVIIKCFCKHRSCFRRNEASRETNNSLTFGPEEALAEQTVFL
notes: also called human-mouse chimera B7-1-GFP; h:mB7-1
B3: p75NTR-mIgG2a (Fc fusion)
chain: KEACPTGLYTHSGECCKACNLGEGVAQPCGANQTVCEPCLDSVTFSDVVSATEPCKPCTECVGLQSMSAPCVEADDAVCRCAYGYYQDETTGRCEACRVCEAGSGLVFSCQDKQNTVCEECPDGTYSDEANHVDPCLPCTVCEDTERQLRECTRWADAECEEIPGRWITRSTPPEGSDSTAPSTQEPEAPPEQDLIASTVAGVVTTVMGSSQPVVTRGTTDN
notes: Full-length ectodomain; also called p75-mIgG2A; recombinant p75 mIgG2a; not shown: C-terminal mIgG2a-His10 Fc domain
B4: human p75 neurotrophin receptor, full length, expressed on HEK 293 cells (receptor)
chain: KEACPTGLYTHSGECCKACNLGEGVAQPCGANQTVCEPCLDSVTFSDVVSATEPCKPCTECVGLQSMSAPCVEADDAVCRCAYGYYQDETTGRCEACRVCEAGSGLVFSCQDKQNTVCEECPDGTYSDEANHVDPCLPCTVCEDTERQLRECTRWADAECEEIPGRWITRSTPPEGSDSTAPSTQEPEAPPEQDLIASTVAGVVTTVMGSSQPVVTRGTTDNLIPVYCSILAAVVVGLVAYIAFKRWNSCKQNKQGANSRPVNQTPPPEGEKLHSDSGISVDSQSLHDQQPHTQTASGQALKGDGGLYSSLPPAKREEVEKLLNGSAGDTWRHLAGELGYQPEHIDSFTHEACPVRALLASWATQDSATLDALLAALRRIQRADLVESLCSESTATSPV
notes: Full-length human p75 with a cytosolic fluorescent tag (GFP); also called p75NTR; NGFR
B5: ICOSL expressed on cells (ligand, human, UniProt O75144 19-302, looked up)
chain: DTQEKEVRAMVGSDVELSCACPEGSRFDLNDVYVYWQTSESKTVVTYHIPQNSSLENVDSRYRNRALMSPAGMLRGDFSLRLFNVTPQDEQKFHCLVLSQSLGFQEVLSVEVTLHVAANFSVPVVSAPHSPSQDELTFTCTSINGYPRPNVYWINKTDNSLLDQALQNDTVFLNMRGLYDVVSVLRIARTPSVNIGCCIENVLLQQNLTVGSQTGNDIGERDKITENPVSTGEKNAATWSILAVLCLLVVVAVAIGWVCRDRCLQHSYAGAWAVSPETELTGHV
notes: whole, on cells

Tests used:
[1] = molecular target: human B7-1 (CD80), full length, expressed on HEK 293 cells (Homo sapiens) (UniProt P33681); assay: cell-cell binding, flow cytometry; percent of the wild-type pair
[2] = molecular target: T1, human B7-1 K127D on cells; assay: as above
human B7-1 R63D on cells = molecular target: T2, human B7-1 R63D on cells; assay: as above
[3] = molecular target: T3, human B7-1 K139D on cells; assay: as above
human B7-1 N82E on cells = molecular target: T4, human B7-1 N82E on cells; assay: as above
[4] = molecular target: T5, human B7-1 K120D on cells; assay: as above
[5] = molecular target: T6, human B7-1 (CD80), full length, …; assay: cell-cell screen, flow cytometry
Experimental: (§1) As illustrated, cells were transfected with expression cassettes expressing labeled receptors or labeled ligands, receptor-expressing cells were mixed with ligand-expressing cells and cell-to-cell binding was monitored by detecting the labels associated with the receptor and the ligand. […] Binding was detected using an anti-mIgG2A ab and flow cytometry. The binding curves were fit and the Bmax, EC50, and hill coefficient were calculated using the equation Y=Bmax*Xh/(Kdh+Xh).

mouse CTLA-4-mIgG2a = molecular target: T8, mouse CTLA-4-mIgG2a (mouse, UniProt P09793 36-161); assay: Fc fusion on cells expressing chimera B7-1-GFP, flow cytometry
T8 construct: not shown: mIgG2a Fc
Experimental: (§2) The arrow identifies the swapped exons. […] Binding was assessed using an anti mIgG2a-647 labeled antibody and flow cytometry.

p75NTR-mIgG2a = molecular target: B3; assay: as above
Experimental: as §2

B7-1-hIgG1-biotin [6] = molecular target: T7, B7-1-hIgG1-biotin; assay: p75-mIgG2A titrated on streptavidin beads coated with B7-1-hIgG1-biotin; anti-mIgG2A, flow cytometry
Text: (§3) Binding was detected by flow cytometry on a SONY Spectral Analyzer (SA 3800). Binding curves were fit using the equation Y=Bmax*Xh/(Kdh+Xh).

B7-1-hIgG1-biotin [7] = molecular target: T7, B7-1-hIgG1-biotin; assay: Fc fusions titrated on streptavidin beads coated with B7-1-hIgG1-biotin, flow cytometry
Text: as §3

[8] = molecular target: T9, protein tyrosine phosphatase receptor type F expressed on cells (human, UniProt P10586 30-1907); assay: cell-cell screen, flow cytometry
T9 construct: whole, on cells; also called PTPRF; PTPRF mCherry
Experimental: as §1

[9] = molecular target: T6, human B7-1 (CD80), full length, …; assay: cell-cell binding, flow cytometry; percent of the wild-type pair
[10] = molecular target: B4; assay: cell-cell screen, flow cytometry
Experimental: as §1

T8 sequence (P09793 36-161): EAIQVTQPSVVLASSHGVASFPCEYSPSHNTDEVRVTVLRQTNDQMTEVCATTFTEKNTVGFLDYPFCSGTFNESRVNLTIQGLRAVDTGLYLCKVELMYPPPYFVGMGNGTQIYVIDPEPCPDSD

| percent binding [2] [%] | percent binding (human B7-1 R63D on cells) [%] | percent binding [3] [%] | percent binding (human B7-1 N82E on cells) [%] | percent binding [4] [%] | other results | Molecule |
| --- | --- | --- | --- | --- | --- | --- |
| 26 | 8 | 26 | 25 | 12 | percent binding [1]: 66% | human p75NTR mutant printed ARG166H on cells (from UniProt P08138 29-427) (receptor) |
| – | – | – | – | – | binding result [5]: no binding | B1 |
| – | – | – | – | – | binding result (mouse CTLA-4-mIgG2a): binds; binding result (p75NTR-mIgG2a): binds | B2 |
| – | – | – | – | – | EC50 (B7-1-hIgG1-biotin [6]): 16 nM; fold higher EC50 than B7-1:CTLA-4 (B7-1-hIgG1-biotin [7]): ~30 fold | B3 |
| 26 | 30 | 21 | 25 | 20 | binding result [8]: binds; percent binding [9]: 100% | B4 |
| – | – | – | – | – | binding result [10]: no binding | B5 |
